Laboratory results: the nanobody polyreactivity screen of Harvey et al. (2022)

Assay: yeast display, Sf9 membrane polyspecificity reagent, FACS + sequencing; frameworks hold sequencing errors
Procedure, shortened: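 After 36–48 hours of galactose induction, yeast (Saccharomyces cerevisiae BJ5465) displaying a synthetic nanobody library were stained at 4 °C for 1 hour with 10% biotinylated, detergent-solubilized Sf9 membrane reagent. Streptavidin microbeads enriched the stained cells before FACS sorting into low and high (top ~1%) gates on anti-HA and streptavidin fluorescence. Each clone's polyreactivity label reflects its gate of origin.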

Sequence	polyreactivity (PSR sort gate)
QVQLVESGGGLVQAGGSLRLSCAASGFTIGSNAMGWYRPAPGKEWELVAAISYTCSTYYAESVKGRFTISRDNAKNTVYLQKNSLKPEDTAVYYGNAESDTPSYDDWGQGTQVTVSS	low polyreactivity
QVHLVDSGGGLVQAGGSLRLSCAAYGSTFHPYAMGWYRQAPGKERELVADITSSGSTHYADSVKGRFTISRDNAKNTVYLQMNSLKPEDTAVYYCAAGIPWASDSGDPSFEYWGQGTEVTVSS	low polyreactivity
QVHLVESGGGLVQAGGSLRLSCAASGRTFDINAMGWYRQAPGKERELVAAISSRGGTTFYADSVKGRFTISRDHAKNTVYLQMNSLKPEDTAVYYCAAEYSSYYTRGGSYNYWGQGTQVTVSS	low polyreactivity
QFQLVESGGRLVQAGGSLRLSCAASGFTFNRYAMGSYRQAPGKGREFVAAITRRGGSTYYADSVKGRFTISRDNAKNTVYLQMNSLKPEDTAVYYCNVKPSARGSPLYDYWGQGTQVTVSS	high polyreactivity
QVQLVESGGGLVQAGGSLRLSCAASGSTFGYYAMGWYRQAPGKERELVAAITSGGTTNYADSVKGRFTISRDNAKNTVYLQMNSLKPEDTAVYYCNAVGTFVRYWTDGRDGVTYDYWGQGTQVTVSS	low polyreactivity
QVQLVESGGGLVQAGGSLRLSCAASGRTIIYNTMGWYRQAPGKEREFVAAINWSGGSTYYADSAKGRFTISRDNAKNTVYLQMNSLKPEDTAVYYCNAEAGYYRALIYDYWGQGTQVTVSS	low polyreactivity
QVQQQQSGGGLVQAGGSLSLSCAASGTIFQLTVMGRYRQAPGKERELVASIDYGGNTNYADSVKGRFTISRDNAKNTVYLQMNSLKPEDTEVYYCAASSDTWTTHPFWGQGTQVTVSS	low polyreactivity
QVQLVESGGGLVQAGGSLRLSCAASGRILVLNAMGWYRQAPGKERELVADITSGGSTYYADSVKGRFTISRDNAKNTVYLQMNSLKPEDTAVYYCAADWNTYPDYQQSYFVSYEYNYWGQGTQVTVSS	low polyreactivity
QVQLVESGGCLDQAGGSLRLSCAASGFTFYNYAMGWYRQEPGKETQLVAAITRNGGRTYYADSVKWRFTISRDNAKYTVYLQMNSLKPEDTAFYYCASKKYKTVRYDYWGQGTQGTVSS	high polyreactivity
QVQLGESGGGLVQAGGSLRLSCAASGRIFGGNAMGRYRQAPGKERELVATISSDGSTNYADSVKGRFTISRDIAKNTVYLQMNSLKPEDTAVYYCAKGFYTLTPHGMDYWGQGTQVTVSS	low polyreactivity
QVQLVESGGGLVQAGGSLRLSCAASGSIFGTNAMGGYRQAPGKETELVADISGSGGTTYYADSVKGRFTISRDNAKNTVDLQMNSLKPEDTAVYYCAAKGRAGYGYTAYANDYGGQGTQVTVSS	low polyreactivity
QVQLVESGGGLVQAGGSLRLSCAASGRTFRRYAMGWYRQAPGKEREFVAAIRYSGGNTYYADSVKGRFTISRDNAKNTVYLQMNSLKPEDTAVYYCAARTYGKYRYSTYYYWGQGTQVTVSS	low polyreactivity
QVHLVESGGGLVQAGGSLRLSCAASGSTIYYNAMGWYRQAPGKERELVAAISKSSSRTYYADSVKGRFTISRDNAKNTVYLQMNSLKTEDTAVYFCAADAVYFHFDYWGQGTQVTVSS	high polyreactivity
QVQLVESGGGLVQAGGSLRLSCAASGYTYPQNAMGWYIKAPGKERDLFAAISRSGGSTNYADSVKGRNTISRDNAKNTVYLQMNILKPEDTAVYYCARYNYTRQTRVEYGYWGQCTQVTVSS	high polyreactivity
QVQLVESGGRVDQAGGSLRLRCAASGRTFPVYAMGWYRQAPGKERELVAAITRCDDSTYYADSVKGRFTISRDNAKNTVYFEMNSLKPEDTAVYYCARSSRESYEYDYWGQGTQVTVSS	low polyreactivity
QVQLVESGGGLVQAGGSLRLSCAASGLTFWWYAMGWYRQAPGKQRELVAGITGGGSTSYADSVKGRFTISRDNAKNTVYLQMNSLKPEDTAVYYCAASPYNGQRTWYKYFFLGDYWGQGTQVTVSS	high polyreactivity
QVQLVESAGGLVQAGGSLRLSCAASGSTFWIYTMGWYRQAPGKERELVAAITWSGGRTYYADSVKGRFTISRDNAKNTVYLQMNSLKPEDTAVYYCNADVYSYRPSTIQRYVLFDYWGQGTQVTVSS	low polyreactivity
QVQLEESGVGLVQAGGSLRLSCAASGRTFLRNAMGWYRQAPGKEMELVAAISWRGGSTYYADSVKGRFTISRDNAKNTVYLEMNSLKPEDTAVYYCNTFPSQYLWYDYWGQGTQVNVSS	high polyreactivity
QVQLVESGGGLVQAGGSLRLSCAASGIIFTYYAMGWDRQAPGKERELVARISSSGGRTYYADSVKGRFTISRDNAKNTVYLQMNSLKPEDTAVYYCAAAIVSYGRNDYWGQGTQVTVSS	high polyreactivity
QVHLVESGGGLVQAGGSLRLSFAASGRIFWDNAMGWYRQAHGKERELVAAISDSVVITYYADSVKGRFTISRDNAKNTVYLQMNSLKPEDTAVYYCAADKRGTVYLSSFWMDYWGQGTQVTVSS	low polyreactivity
QVQLVESGGGLVHAGGSLRLSCAASGSTFWANAMGWYRPPPGKERELVAAITSTGITYYADSVKGRFTISRDNAKNTVYLQMNSLKPEDTAVYYCAADGFRYSVYLIRNPMDYWGQGTQVTVSS	low polyreactivity
QLQLVESGGGLVQAGGSLRLSCAASGRIVKYDMGWYRQAPGKERELVAAISGSGGTTNYADSVKGRFTISRDNAKNTVYLKLNSLKPEETAVYYCAASRPRPPSSRRMDYWGQGTQVTVSS	high polyreactivity

Sequence	polyreactivity (PSR sort gate)
QVQLVESGGGLVQAGGSLRLICAASGFTFLTYAMGWYRQAPGKERELVAAIDSGDSTKYADSVKGRFTISRDNAKYTVYLQMNSLKPEDTAVYYCNASRRYHVLAPYDYWGQGTQVTVSS	low polyreactivity
QVQLVESGGGLVQAGGSLRLSCAASGRTFPRNAMGWYRQAPGKERELVAAISYGGGRTYYADSVKGRFTISRDYAKNTVYLQMNSLKPEDTAVYYCATVRRTDYPLGMDYWGHGTQVTVSS	high polyreactivity
QVQLVESGAGLVQAGGSLRLSCAASGSTLVFYTMGWYRQAPGKERELVAAISYSGGRTYYADSVKGRFTISRDNAKNTVYLQMNSLKPEDTAVYYCAAVGRSYNRISQYDYWGQGTQVTVSS	high polyreactivity
QVQLVESWGGLVQAGGSHRLSCAASGRTFPIYAMGWYRQAPGKERELVAAITYSGGSTYYADSVKGRFTISRDNAKNTVYLQMNSLKPEDTAVYYCAVDGTKPYWHQRYDYWGQGTQVTVSS	low polyreactivity
QVQLVESGGGLVQAGGRLRLSCAASGLTLRWYAMGWYRQAPGKERELVAVISGSGSTNYADSVKGRFTISRDNAKNTVYLQMNSLKPEDTAVYYCAAQSHLGTPQRFGYWGQGTQVTVSS	low polyreactivity
QVQLVESGGGLVQAGGSLRLSCAASGITFTEYAMGWYRQAPGKERELVAAITGSGTSTYYADSVKGRFTISRDNAKNTVYLQMNSLKPEDTAVYYCAAERKNKYDYWGQGTQVTVSS	high polyreactivity
QVQLVESGGGLVQAGGSLRLSCAASGSIFWYYAMGWYRQAPGKERELVAAISISGSTYYADSVKGRFTISRDNAKNTVYLQMNSLKPEDTAVYYCAARKFFWRSNYDYWGQGTQVNVSS	low polyreactivity
QVQLVESGGGLVQAGGSLRLSCAASGSTFEYNAMGGYRQAPGKERELVASSTNYADSVKGRFTISRDNAKNTVYLQMNSLKPEDTAVYYCAREQGVNRNHDYWGQGTQVTVSS	low polyreactivity
QVQLVESGGGLVQAGGSLRLSCAASGRTFRRYTMGWYRQAPGKVRELVAAITTSGGSTYYADSVKGRFTISRDNAKNTVYLQMNRLKPEDTAVYYCAATRRYSGDYWGQGTQVTVSS	high polyreactivity
QVQLVESGGGLVQAGGSLRLSCAASGSTFDAYAMGWYRQAPGKEWELVAAISTRGGRTDYADSVKGRFTISRDNAKNTVYLQMNSRKPEDTAVYYCTAVGARVNVRGTPAFDSWGQGTQVTVSS	high polyreactivity
KVQLVESVGGLVQAGGSLRLSCAASGRIFGVNAMGWYRQAPGKERELVAAIRSGDSTNYADSVKGRFTISRDNAKNTVYLQMNSLKPEDTAVYYCATDLYFDLRYDYWGQGTQVTVSS	low polyreactivity
PVQLVESGGGLVQAGGSLRLSCAASGRTVGYAMGWYRQSPWKERELVARINRTTGSTYYADSVKGRFTISRDNAKNTVYLQMKRLKPEDTAVYYCNAKSYYYSRWSRYYCTGYYYWGQGTQVTVSS	high polyreactivity
QVQLQESGGGLVQAGGSLRMSCAASGSIFYVYGMGWYRQAPGKERELVAGINAGTNTNYADSVRGRFTISRDNAKNTVHLQMKSLKPEDTAVYYCAADGNGYQADEYWGQGTQVTVSS	high polyreactivity
QVQLVESGGGLVQAGGSLRLSCAASGSTFNYNAMGWYRQAPGKERELVAAIRSSDGSTHYADSVKGRFTISRDNAKNTVYLQMNSLKPEDTAVYYCAADYDVWWRDDYWGQGSQVTVSS	low polyreactivity
QVQLVESGGGLDQAGGSLRLSCAASGRTFRYYAMGWYRQAPWKESDLVATITGSGGSTYYADSVKGRFTISRDNSKNTVYLQMYSLKPEDTAVYYCNARKVRYPYRWYDYWGQGTQVTVSS	high polyreactivity
QVQLVESGGGLVQAGGSLRLSCAASGFIFGGYARGWYRQAPGKEREFVAAIRQRGGSTYYADSVKGRFTISRDNAKNTVYLQMNSLKPEDTAVYYCAAEPNTQWFDYWGQGTQVTVSS	high polyreactivity
QVQLVESGGGLVQAGGSLRFSCAASGIIFYYKTMGLYRQAPGKERELVASITWSGDTTYYAYSVKGRYTISRDNAKNSVYLQMNSLKPEDTAVYYCAAACYWYPSYSSYLGMYYWGQGTKVTVSS	low polyreactivity
QVQLVESGGGLVQAGGSLRLSCAASGRTFSYYGMGWYRQAPGKERELVAAITNSVGRTYYADSVKGRFTISRDNEKNTVYLHMNSLKPEDTAVYYCKKYGRYYYWGQGTQVTVSS	low polyreactivity
QVQLVESGGGLVQAGGSLRLSCAASGRIIYENAMGWYRQAPGKEREFVAAITGSGGSTYYADSVKGRFTISRDNAKNTVYLQMISLKPEDTEVYYCAAPLSSYWVYIVRYGYDYWGQGTQVTVSS	low polyreactivity
QVQLVESGGGFVQAGGSLRLSCAASGRTFPEYDMGRYRQAPGKERELVAAISTSGGSTYYADSVKGRFTISRDIAKNTVYLQMNSLKPEDTGVYYCAAQVTSIWGFTYAYRYDYWGQGTHVTVSS	low polyreactivity
QVQLVESGGGLVQAGGSLRLSCAASGSIFLGNTMGWYRQAPGKERELVAAITIGGSTHYADSVKGRFTISRDNAKNTVYLQMNSLKPDDTAVYYCAKEGWPFGIDFDYWGQGTQVTVSS	low polyreactivity
